In article PMC10578477, “Biochemical and genetic dissection of the RNA-binding surface of the FinO domain of Escherichia coli ProQ”:

Key:
[1] = target: T1, ProQ NTD WT (FinO domain) (Escherichia coli, UniProt P45577 1-130); assay: EMSA; settings: EMSA: 25 mM Tris pH 7.5, 150 mM NaCl, 5% glycerol, 1 mM MgCl2, 1 nM 32P-RNA, 30 min RT; microplates pretreated with 0.0025% BSA; 6% gel in 0.5x TBE at 4 C
T1 sequence: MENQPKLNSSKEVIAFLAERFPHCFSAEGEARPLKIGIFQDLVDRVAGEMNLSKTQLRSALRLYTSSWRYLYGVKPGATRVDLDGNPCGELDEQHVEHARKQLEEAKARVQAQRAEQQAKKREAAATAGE

[2] = target: T1, ProQ NTD WT (FinO domain); assay: EMSA; range for five RNAs; EMSA: 25 mM Tris pH 7.5, 150 mM NaCl, 5% glycerol, 1 mM MgCl2, 1 nM 32P-RNA, 30 min RT; microplates pretreated with 0.0025% BSA; 6% gel in 0.5x TBE at 4 C; settings: protein: recombinant; tags: His6-TEV removed, N-terminal Ser remains; label: 5'-32P; terminator hairpin, 8 U 3' tail
[3] = target: T1, ProQ NTD WT (FinO domain); assay: EMSA; EMSA: 25 mM Tris pH 7.5, 150 mM NaCl, 5% glycerol, 1 mM MgCl2, 1 nM 32P-RNA, 30 min RT; microplates pretreated with 0.0025% BSA; 6% gel in 0.5x TBE at 4 C; settings: protein: recombinant, tags: His6-TEV removed, N-terminal Ser remains, label: 5'-32P

Molecule: RybB
- Kd [1]: 26 nM

Molecule: gapA-3'
- Kd [1]: 14 nM

B1: cspE-3' (structured_RNA)
RNA: GUAAGAUACGUCAGCAAGAAUUCAAAACCCGCUUAAUCAGCGGGUUUUUUUU
- Kd [2]: ~6.33 nM

Molecule: GGAAUUCGGAAGGCGCUUAAUCAGCGCCUUUUUU (structured_RNA) [cspE-mini-3'-6U]
- binding signal ([3]; hairpin, 6 U tail (2 predicted single-stranded)): ~2.5 fold weaker Kd than cspE-mini

Molecule: GGAAUUCGGAAGGCGCUUAAUCAGCGCCUUUUUUUU (structured_RNA) [cspE-mini]
- binding signal ([3]; hairpin with 5' and 3' single-stranded regions): ~1 fold weaker Kd than cspE-3'
